Data on one protein can be found in ChEMBL document CHEMBL2073902, “A functional study on polymorphism of the ATP-binding cassette transporter ABCG2: critical role of arginine-482 in methotrexate transport” (Biochem J, 2003).

Substrate in this data set: CN(Cc1cnc2nc(N)nc(N)c2n1)c1ccc(C(=O)N[C@@H](CCC(=O)O)C(=O)O)cc1
Put plainly: TP_TRANSPORTER: uptake (vesicle) in membrane vesicle from ABCG2-expressing HEK-293 cells. In kind it is functional, cell membranes, HEK293.

B1: Broad substrate specificity ATP-binding cassette transporter ABCG2 (Homo sapiens) (protein)
chain: MSSSNVEVFIPVSQGNTNGFPATASNDLKAFTEGAVLSFHNICYRVKLKSGFLPCRKPVEKEILSNINGIMKPGLNAILGPTGGGKSSLLDVLAARKDPSGLSGDVLINGAPRPANFKCNSGYVVQDDVVMGTLTVRENLQFSAALRLATTMTNHEKNERINRVIQELGLDKVADSKVGTQFIRGVSGGERKRTSIGMELITDPSILFLDEPTTGLDSSTANAVLLLLKRMSKQGRTIIFSIHQPRYSIFKLFDSLTLLASGRLMFHGPAQEALGYFESAGYHCEAYNNPADFFLDIINGDSTAVALNREEDFKATEIIEPSKQDKPLIEKLAEIYVNSSFYKETKAELHQLSGGEKKKKITVFKEISYTTSFCHQLRWVSKRSFKNLLGNPQASIAQIIVTVVLGLVIGAIYFGLKNDSTGIQNRAGVLFFLTTNQCFSSVSAVELFVVEKKLFIHEYISGYYRVSSYFLGKLLSDLLPMRMLPSIIFTCIVYFMLGLKPKADAFFVMMFTLMMVAYSASSMALAIAAGQSVVSVATLLMTICFVFMMIFSGLLVNLTTIASWLSWLQYFSIPRYGFTALQHNEFLGQNFCPGLNATGNNPCNYATCTGEEYLVKQGIDLSPWGLWKNHVALACMIVIFLTIAYLKLLFLKKYS
A word on the Km: it is the substrate concentration at which the rate is half of its maximum. For B1, the Michaelis-Menten constant (Km) is 5.7 mM.
